Reference: the Immune Epitope Database (IEDB)
Each block holds one sequence with its values, some of them ahead of it.

Tests used:
HLA-B*46:01 [1] = assay: IEDB peptide-MHC binding, purified MHC/competitive/fluorescence; filed as Kd, often an IC50 or EC50 that approximates it; ≥ and ≤ were set here for values at or beyond the usual limits of such assays; conditions: source organism: Araucaria virus
HLA-A*02:01 = assay: as above
HLA-A*69:01 [2] = assay: as above
HLA-A*26:01 [3] = assay: as above; conditions: source organism: Araucaria virus
HLA-B*18:01 [4] = assay: as above; conditions: source organism: Araucaria virus
HLA-B*39:01 [5] = assay: as above; conditions: source organism: Araucaria virus
HLA-B*57:01 [6] = assay: as above; conditions: source organism: Araucaria virus
HLA-B*51:01 [7] = assay: as above; conditions: source organism: Araucaria virus
HLA-B*27:03 [8] = assay: as above; conditions: source organism: Araucaria virus
HLA-B*15:01 [9] = assay: as above; conditions: source organism: Araucaria virus
HLA-B*08:01 = assay: as above; conditions: source organism: Araucaria virus
HLA-A*02:03 [10] = assay: IEDB peptide-MHC binding, purified MHC/direct/fluorescence; filed as Kd, often an IC50 or EC50 that approximates it; ≥ and ≤ were set here for values at or beyond the usual limits of such assays; conditions: source organism: Choclo virus
HLA-A*02:12 [11] = assay: as above
HLA-A*02:19 [12] = assay: as above
HLA-A*03:01 = assay: as above
HLA-A*02:11 [13] = assay: as above; conditions: source organism: Choclo virus
HLA-A*02:16 [14] = assay: as above
HLA-B*46:01 [15] = assay: as above
HLA-A*26:01 [16] = assay: as above
HLA-B*18:01 [17] = assay: as above
HLA-B*57:01 [18] = assay: as above
HLA-B*51:01 [19] = assay: as above; conditions: source organism: Encephalitozoon cuniculi GB-M1
HLA-B*27:03 [20] = assay: as above
HLA-B*15:01 [21] = assay: as above
HLA-A*24:03 = assay: as above; conditions: source organism: Encephalitozoon cuniculi GB-M1
HLA-A*02:06 = assay: IEDB peptide-MHC binding, purified MHC/competitive/fluorescence; filed as Kd, often an IC50 or EC50 that approximates it; ≥ and ≤ were set here for values at or beyond the usual limits of such assays
HLA-A*11:01 = assay: IEDB peptide-MHC binding, purified MHC/direct/fluorescence; filed as Kd, often an IC50 or EC50 that approximates it; ≥ and ≤ were set here for values at or beyond the usual limits of such assays
HLA-A*31:01 = assay: as above
HLA-B*48:01 = assay: as above
HLA-B*08:02 = assay: as above
HLA-A*69:01 [22] = assay: as above; conditions: source organism: Burkholderia mallei
HLA-B*27:05 = assay: as above
HLA-A*01:01 = assay: as above
HLA-B*39:01 [23] = assay: as above
HLA-B*40:01 = assay: as above
HLA-B*58:01 = assay: as above
HLA-B*15:17 = assay: as above
HLA-A*02:03 [24] = assay: IEDB peptide-MHC binding, purified MHC/competitive/fluorescence; filed as Kd, often an IC50 or EC50 that approximates it; ≥ and ≤ were set here for values at or beyond the usual limits of such assays; conditions: source organism: Desulfatibacillum alkenivorans AK-01
HLA-A*02:12 [25] = assay: as above; conditions: source organism: Desulfatibacillum alkenivorans AK-01
HLA-A*02:19 [26] = assay: as above; conditions: source organism: Desulfatibacillum alkenivorans AK-01
HLA-A*02:11 [27] = assay: as above; conditions: source organism: Desulfatibacillum alkenivorans AK-01
HLA-A*02:16 [28] = assay: as above; conditions: source organism: Desulfatibacillum alkenivorans AK-01
[29] = source organism: Araucaria virus
[30] = source organism: Encephalitozoon cuniculi GB-M1
[31] = source organism: Burkholderia mallei NCTC 10229
[32] = source organism: Burkholderia mallei
[33] = source organism: Burkholderia mallei ATCC 23344
[34] = source organism: Mycobacterium tuberculosis
[35] = source organism: Vaccinia virus Copenhagen
[36] = source organism: Desulfatibacillum alkenivorans AK-01

Sequence: ELRQLAQSL
Kd (HLA-B*46:01 [1]): ≥ 20 µM
Kd (HLA-A*02:01; [29]): ≥ 20 µM
Kd (HLA-A*69:01 [2]; [29]): ≥ 20 µM
Kd (HLA-A*26:01 [3]): ≥ 20 µM
Kd (HLA-B*18:01 [4]): ≥ 20 µM
Kd (HLA-B*39:01 [5]): ≥ 20 µM
Kd (HLA-B*57:01 [6]): ≥ 20 µM
Kd (HLA-B*51:01 [7]): ≥ 20 µM
Kd (HLA-B*27:03 [8]): ≥ 20 µM
Kd (HLA-B*15:01 [9]): ≥ 20 µM
Kd (HLA-B*08:01): 0.156 µM
Kd (HLA-A*02:03 [10]): ≥ 20 µM
Kd (HLA-A*02:12 [11]; source organism: Choclo virus): ≥ 20 µM
Kd (HLA-A*02:19 [12]; source organism: Choclo virus): ≥ 20 µM
Kd (HLA-A*03:01; source organism: Choclo virus): ≥ 20 µM
Kd (HLA-A*02:11 [13]): ≥ 20 µM
Kd (HLA-A*02:16 [14]; source organism: Choclo virus): ≥ 20 µM

Kd (HLA-B*46:01 [15]; [30]): ≥ 20 µM
Kd (HLA-A*26:01 [16]; [30]): ≥ 20 µM
Kd (HLA-B*18:01 [17]; [30]): ≥ 20 µM
Kd (HLA-A*02:12 [11]; [30]): ≥ 20 µM
Kd (HLA-A*02:19 [12]; [30]): ≥ 20 µM
Kd (HLA-A*03:01; [30]): ≥ 20 µM
Kd (HLA-B*57:01 [18]; [30]): ≥ 20 µM
Kd (HLA-B*51:01 [19]): 2.92 µM
Kd (HLA-B*27:03 [20]; [30]): ≥ 20 µM
Kd (HLA-B*15:01 [21]; [30]): ≥ 20 µM
Kd (HLA-A*24:03): ≥ 20 µM
Kd (HLA-A*02:16 [14]; [30]): ≥ 20 µM
Sequence: HPYVFCALL

Sequence: IYDFYNAEY
Kd (HLA-A*02:01; [31]): 0.138 µM
Kd (HLA-A*02:06; [31]): 0.0534 µM
Kd (HLA-A*11:01; [32]): ≥ 20 µM
Kd (HLA-A*31:01; [32]): ≥ 20 µM
Kd (HLA-B*48:01; [32]): ≥ 20 µM
Kd (HLA-B*08:02; [33]): ≥ 20 µM
Kd (HLA-A*69:01 [22]): ≥ 20 µM
Kd (HLA-B*27:05; [32]): ≥ 20 µM
Kd (HLA-A*26:01 [16]; [33]): 0.091 µM
Kd (HLA-A*01:01; [32]): 1.76 µM
Kd (HLA-B*39:01 [23]; [33]): ≥ 20 µM
Kd (HLA-A*03:01; [32]): ≥ 20 µM
Kd (HLA-B*57:01 [18]; [32]): ≥ 20 µM
Kd (HLA-B*40:01; [32]): ≥ 20 µM
Kd (HLA-B*15:01 [21]; [32]): ≥ 20 µM
Kd (HLA-B*58:01; [32]): ≥ 20 µM
Kd (HLA-B*15:17; [32]): 5.09 µM

Sequence: SIYYTLVRM
Kd (HLA-B*46:01 [15]; [34]): ≥ 20 µM
Kd (HLA-A*26:01 [16]; [34]): ≥ 20 µM
Kd (HLA-B*18:01 [17]; [34]): ≥ 20 µM
Kd (HLA-A*02:12 [11]; [34]): ≥ 20 µM
Kd (HLA-B*39:01 [23]; [34]): ≥ 20 µM
Kd (HLA-A*02:19 [12]; [34]): ≥ 20 µM
Kd (HLA-B*57:01 [18]; [34]): ≥ 20 µM
Kd (HLA-B*27:03 [20]; [34]): ≥ 20 µM
Kd (HLA-B*15:01 [21]; [34]): ≥ 20 µM
Kd (HLA-B*15:17; [34]): 0.256 µM

Sequence: YKDANISMY
Kd (HLA-A*02:01; [35]): 0.113 µM
Kd (HLA-A*69:01 [2]; [35]): 1.04 µM
Kd (HLA-A*02:06; [35]): 0.107 µM
Kd (HLA-A*11:01; source organism: Cowpox virus): ≥ 20 µM
Kd (HLA-A*31:01; source organism: Cowpox virus): ≥ 20 µM
Kd (HLA-B*46:01 [15]; source organism: Cowpox virus): ≥ 20 µM
Kd (HLA-B*48:01; source organism: Cowpox virus): ≥ 20 µM
Kd (HLA-B*08:02; source organism: Variola virus): ≥ 20 µM
Kd (HLA-B*27:05; source organism: Cowpox virus): ≥ 20 µM
Kd (HLA-A*26:01 [16]; source organism: Variola virus): ≥ 20 µM
Kd (HLA-A*01:01; source organism: Cowpox virus): ≥ 20 µM
Kd (HLA-A*03:01; source organism: Cowpox virus): ≥ 20 µM
Kd (HLA-B*57:01 [18]; source organism: Cowpox virus): ≥ 20 µM
Kd (HLA-B*40:01; source organism: Cowpox virus): ≥ 20 µM
Kd (HLA-B*15:01 [21]; source organism: Cowpox virus): ≥ 20 µM
Kd (HLA-B*58:01; source organism: Cowpox virus): ≥ 20 µM
Kd (HLA-B*15:17; source organism: Cowpox virus): ≥ 20 µM

Kd (HLA-A*02:01; [36]): 0.384 µM
Kd (HLA-A*02:03 [24]): 0.00229 µM
Kd (HLA-A*69:01 [2]; [36]): ≥ 20 µM
Kd (HLA-A*02:12 [25]): 0.0235 µM
Kd (HLA-A*02:06; [36]): 0.00192 µM
Kd (HLA-A*02:19 [26]): 0.117 µM
Kd (HLA-A*02:11 [27]): 0.0013 µM
Kd (HLA-A*02:16 [28]): 0.00177 µM
Sequence: KLGKAGYVV
